Data published in the supplement of paper PMC10567573.

B1: PCDHGA10 (parent)
chain: FHELQMQVTASDSGDPPLSSNVSL
B2: PPFIA4 (parent)
chain: PGVHRRYSALREESAKDWETSPLP

Variants of: B1
Test: protein stability index of a GFP-peptide fusion (GPS, HEK-293T) (PSI 1-6); higher = more stable
Conditions: c terminus: a fixed tail appended
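Also: lentivirally expressed fusions sorted by FACS into six bins by GFP to DsRed ratio, PSI derived from sequencing read proportions per bin multiplied by bin number.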

Point of comparison: FHELQMQVTASDSGDPPLSSNVKL [S23K], protein stability index 2.84. Against it:
- FHELQMQVTASDNGDPPLSSNVSL [S13N] — lower, 2.43
- FHELQMQVTASDHGDPPLSSNVSL [S13H] — lower, 2.1
- FHELQMQVTASDSGDPPLSSLVSL [N21L] — lower, 2.34
- FHELQMQVTASDSGDPPLSSPVSL [N21P] — lower, 2.5
- FHELQMQVTASDSGDPPLSSNFSL [V22F] — lower, 1.8
- FHELQMQVTASDSGDPPLSSNKSL [V22K] — the same, 2.84
- FHELQMQVTASDSGDPPGSSNVSL [L18G] — higher, 3.05
- FHELQMQVTASDSGDPPDSSNVSL [L18D] — higher, 3.51
- FHELQMQVTASDSGDPPLFSNVSL [S19F] — lower, 2.07
- FHELQMQVTYSDSGDPPLSSNVSL [A10Y] — lower, 2.02
- FHELQMQVTCSDSGDPPLSSNVSL [A10C] — lower, 1.74
- FHELQMQVTASESGDPPLSSNVSL [D12E] — lower, 2.23
- FHELQMQLTASDSGDPPLSSNVSL [V8L] — lower, 2.15
- FHELQMQVTASDSGDPYLSSNVSL [P17Y] — lower, 1.52
- FHELQMQVTASDSGDPNLSSNVSL [P17N] — lower, 2.12
- FHELQMQVTASDSGDPMLSSNVSL [P17M] — lower, 2.38
- FHELQMQVTASDSGDPTLSSNVSL [P17T] — lower, 1.93
- THELQMQVTASDSGDPPLSSNVSL [F1T] — higher, 4.57
- DHELQMQVTASDSGDPPLSSNVSL [F1D] — higher, 4.91
- CHELQMQVTASDSGDPPLSSNVSL [F1C] — higher, 3.83
- FHELQMQVTASDSGDPPLSSNVSH [L24H] — the same, 2.84
- FHELQMQVTASDSGDPPLSSNVSK [L24K] — lower, 2.79
- FHELQMQVTAKDSGDPPLSSNVSL [S11K] — higher, 2.9
- FHELQMQVTATDSGDPPLSSNVSL [S11T] — lower, 2.4
- FHELQMQVTALDSGDPPLSSNVSL [S11L] — lower, 2.27
- FHELQMQVTAEDSGDPPLSSNVSL [S11E] — lower, 2.82
- FHELQNQVTASDSGDPPLSSNVSL [M6N] — higher, 3.46
- FHELQKQVTASDSGDPPLSSNVSL [M6K] — lower, 2.52
- FHELQMQVTASDSGMPPLSSNVSL [D15M] — lower, 1.91
- FHELQMQVTASDSGHPPLSSNVSL [D15H] — lower, 1.88
- FHELQMQVTASDSGDPPLSSNVNL [S23N] — lower, 2.46
- FHELQMQVTASDSGDEPLSSNVSL [P16E] — lower, 2.54
- FHELQMQVTASDSGDSPLSSNVSL [P16S] — lower, 2.04

Variants of: B2
Test: as above
Conditions: c terminus: a fixed tail appended

Point of comparison: GGVHRRYSALREESAKDWETSPLP [P1G], protein stability index 4.03. Against it:
- PGHHRRYSALREESAKDWETSPLP [V3H] — higher, 4.44
- PGYHRRYSALREESAKDWETSPLP [V3Y] — lower, 3.55
- PGTHRRYSALREESAKDWETSPLP [V3T] — higher, 4.7
- PGQHRRYSALREESAKDWETSPLP [V3Q] — higher, 4.42
- PGRHRRYSALREESAKDWETSPLP [V3R] — higher, 4.33
- PGGHRRYSALREESAKDWETSPLP [V3G] — higher, 4.84
- PGPHRRYSALREESAKDWETSPLP [V3P] — higher, 4.6
- PGFHRRYSALREESAKDWETSPLP [V3F] — lower, 4.02
- PGSHRRYSALREESAKDWETSPLP [V3S] — lower, 3.89
- PGEHRRYSALREESAKDWETSPLP [V3E] — higher, 4.33
- PGDHRRYSALREESAKDWETSPLP [V3D] — higher, 4.89
- PGMHRRYSALREESAKDWETSPLP [V3M] — higher, 5.03
- PGNHRRYSALREESAKDWETSPLP [V3N] — higher, 4.45
- PGLHRRYSALREESAKDWETSPLP [V3L] — lower, 3.66
- PGCHRRYSALREESAKDWETSPLP [V3C] — higher, 4.08
- KGVHRRYSALREESAKDWETSPLP [P1K] — higher, 4.41
- LGVHRRYSALREESAKDWETSPLP [P1L] — lower, 3.11
- FGVHRRYSALREESAKDWETSPLP [P1F] — lower, 3.63
- DGVHRRYSALREESAKDWETSPLP [P1D] — lower, 3.93
- VGVHRRYSALREESAKDWETSPLP [P1V] — lower, 3.74
- TGVHRRYSALREESAKDWETSPLP [P1T] — higher, 4.16
- HGVHRRYSALREESAKDWETSPLP [P1H] — higher, 4.36
- EGVHRRYSALREESAKDWETSPLP [P1E] — lower, 3.49
- NGVHRRYSALREESAKDWETSPLP [P1N] — lower, 3.88
- YGVHRRYSALREESAKDWETSPLP [P1Y] — higher, 4.17
- AGVHRRYSALREESAKDWETSPLP [P1A] — lower, 3.5
- CGVHRRYSALREESAKDWETSPLP [P1C] — lower, 2.65
- IGVHRRYSALREESAKDWETSPLP [P1I] — higher, 4.16
- QGVHRRYSALREESAKDWETSPLP [P1Q] — higher, 4.18
- MGVHRRYSALREESAKDWETSPLP [P1M] — lower, 3.51
- PSVHRRYSALREESAKDWETSPLP [G2S] — higher, 4.28
- PIVHRRYSALREESAKDWETSPLP [G2I] — higher, 4.51
- PYVHRRYSALREESAKDWETSPLP [G2Y] — higher, 4.08
- PMVHRRYSALREESAKDWETSPLP [G2M] — lower, 3.62
- PCVHRRYSALREESAKDWETSPLP [G2C] — lower, 3.42
- PDVHRRYSALREESAKDWETSPLP [G2D] — higher, 4.4
- PVVHRRYSALREESAKDWETSPLP [G2V] — higher, 4.16
- PTVHRRYSALREESAKDWETSPLP [G2T] — higher, 4.67
- PWVHRRYSALREESAKDWETSPLP [G2W] — higher, 4.36
- PAVHRRYSALREESAKDWETSPLP [G2A] — lower, 3.85
- PKVHRRYSALREESAKDWETSPLP [G2K] — lower, 3.98
- PRVHRRYSALREESAKDWETSPLP [G2R] — higher, 4.11
- PHVHRRYSALREESAKDWETSPLP [G2H] — lower, 3.18
- PNVHRRYSALREESAKDWETSPLP [G2N] — higher, 4.5
- PQVHRRYSALREESAKDWETSPLP [G2Q] — higher, 4.43
- PGVWRRYSALREESAKDWETSPLP [H4W] — lower, 3.15
- PGVDRRYSALREESAKDWETSPLP [H4D] — higher, 4.37
- PGVIRRYSALREESAKDWETSPLP [H4I] — higher, 4.14
- PGVMRRYSALREESAKDWETSPLP [H4M] — higher, 4.49
- PGVVRRYSALREESAKDWETSPLP [H4V] — lower, 3.8
- PGVTRRYSALREESAKDWETSPLP [H4T] — higher, 4.36
- PGVARRYSALREESAKDWETSPLP [H4A] — higher, 4.25
- PGVRRRYSALREESAKDWETSPLP [H4R] — lower, 3.42
- PGVCRRYSALREESAKDWETSPLP [H4C] — lower, 2.79
- PGVNRRYSALREESAKDWETSPLP [H4N] — higher, 4.52
- PGVLRRYSALREESAKDWETSPLP [H4L] — lower, 3.77
- PGVYRRYSALREESAKDWETSPLP [H4Y] — higher, 4.81
- PGVPRRYSALREESAKDWETSPLP [H4P] — higher, 4.33
- PGVERRYSALREESAKDWETSPLP [H4E] — higher, 4.53
